Measured values from IntAct's records for PubMed 18562279.

Biological target: akt1_human AKT1 (UniProt P31749)
Sequence (P31749 whole entry): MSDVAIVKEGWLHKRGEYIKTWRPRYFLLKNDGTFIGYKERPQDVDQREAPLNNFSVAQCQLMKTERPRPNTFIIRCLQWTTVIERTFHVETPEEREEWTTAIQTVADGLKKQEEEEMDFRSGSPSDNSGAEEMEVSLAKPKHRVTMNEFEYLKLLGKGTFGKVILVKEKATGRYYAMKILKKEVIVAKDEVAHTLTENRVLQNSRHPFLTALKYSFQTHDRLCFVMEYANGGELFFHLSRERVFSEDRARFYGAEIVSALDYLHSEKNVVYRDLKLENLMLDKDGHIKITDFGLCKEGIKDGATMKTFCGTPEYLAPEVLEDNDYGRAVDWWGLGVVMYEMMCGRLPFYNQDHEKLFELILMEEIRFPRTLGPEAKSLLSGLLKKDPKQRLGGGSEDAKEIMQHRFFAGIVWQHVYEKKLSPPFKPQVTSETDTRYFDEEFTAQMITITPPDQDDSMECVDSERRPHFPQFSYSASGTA

Row | effect of a mutation on the interaction | Substance
1 | disrupting interaction | THO complex subunit 4 (Homo sapiens) (from UniProt Q86V81) S34A
2 | disrupting interaction | THO complex subunit 4 (Homo sapiens) (from UniProt Q86V81) T219A
